Experiments:
[1] = biological target: T1, monomeric huBDCA2 ectodomain (human, UniProt Q8WTT0 45-213); experiment: Octet, mAb from conditioned medium on anti-human Fc tips, monomeric huBDCA2 in solution
T1 construct: Prepared by proteolytic cleavage of the purified muIgG2a Fc-huBDCA2 fusion protein (pEAG2423); also called human BDCA2 ectodomain; human BDCA2 ECD
T1 sequence: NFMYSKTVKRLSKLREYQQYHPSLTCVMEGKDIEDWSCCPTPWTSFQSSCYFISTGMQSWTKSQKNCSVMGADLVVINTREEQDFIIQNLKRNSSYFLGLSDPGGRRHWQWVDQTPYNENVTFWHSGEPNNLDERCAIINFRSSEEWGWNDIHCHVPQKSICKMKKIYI
Experimental: Backmutation to the unpaired cysteine, i.e., S95C, was constructed by site-directed mutagenesis producing plasmid pYL749. Variants S95T, S95A, and S95V were constructed by site-directed mutagenesis producing plasmids pYL750, pYL751, and pYL752, respectively. The full-length light chain cDNA sequences in the resultant plasmids were confirmed by DNA sequencing. […] Conditioned medium was harvested at 2 days post-transfection. […] Conditioned medium containing the C95 variant mAbs was assayed by Octet for binding to human BDCA2 ectodomain. Antibodies from conditioned medium from transiently transfected cells were bound to anti-human Fc tips, then monomeric huBDCA2 was flowed over the Octet tips, to examine binding and dissociation.

[2] = biological target: T2, cynomolgus monkey BDCA2 (full-length, cell surface, E73 SNP form) (cynomolgus monkey, UniProt Q8WTT0 1-213 (human entry)); experiment: flow cytometry, whole blood pDCs of cynomolgus monkey donor 5, anti-human IgG PE secondary
T2 construct: also called cyno BDCA2; surface cynomolgus monkey BDCA2
T2 chain: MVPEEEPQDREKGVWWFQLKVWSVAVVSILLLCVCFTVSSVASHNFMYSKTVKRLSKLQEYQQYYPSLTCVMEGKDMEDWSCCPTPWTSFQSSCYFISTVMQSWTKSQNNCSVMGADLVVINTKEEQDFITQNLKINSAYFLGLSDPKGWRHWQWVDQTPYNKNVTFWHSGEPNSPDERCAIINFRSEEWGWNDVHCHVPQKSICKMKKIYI
Experimental: (§1) The maximal values were taken from the values at the plateau in each assay (FIGS. 24 and 25).
(§2) MFI of PE was calculated with FlowJo software, and EC50 curves were generated in GraphPad Prism software.

[3] = biological target: T2, cynomolgus monkey BDCA2 (full-length, …); experiment: indirect method: flow cytometry of pDCs in cynomolgus whole blood, unlabelled BIIB059 titrated, free BDCA2 detected with the competitor BIIB059-A647 at 10 ug/mL [panel Cynomolgus monkey 8]
Experimental: (§3) The MFI of PE (open symbols, graphed on the left y-axis) or A647 (closed symbols, graphed on the right y-axis) was calculated in FlowJo software, and graphed using GraphPad Prism software (four-parameter nonlinear regression curve fit of log-transformed data).

[4] = biological target: T2, cynomolgus monkey BDCA2 (full-length, …); experiment: flow cytometry, whole blood pDCs of cynomolgus monkey donor 12, anti-human IgG PE secondary
Experimental: (§4) The MFI of PE was calculated in FlowJo software, and the percent of maximal binding, using the 40 μg/mL point as 100%, was computed. Each line represents one individual cynomolgus monkey, for a total of twelve cynomolgus monkeys, and graphed using GraphPad Prism software (four-parameter nonlinear regression curve fit of log-transformed data). Staining was repeated once a week for three weeks total.
as §1, §2

[5] = biological target: T2, cynomolgus monkey BDCA2 (full-length, …); experiment: flow cytometry, Alexa647-labelled BIIB059 on pDCs in cynomolgus monkey whole blood, on ice
Experimental: Cynomolgus monkey (Toxikon, Inc, Bedford, Mass.) or human peripheral blood (Biogen Idec) were collected in sodium heparin collection tubes and maintained at room temperature. A FACS staining antibody cocktail for identifying pDCs was added to each whole blood aliquot, incorporating CD20, CD14, CD123 and HLA-DR antibodies. […] Blood was incubated on ice, protected from light, for 30 min. […] After a 10-15 min. incubation at room temperature, samples were centrifuged at 1400 rpm for 5 min. The supernatant was decanted, leaving only a pellet of white blood cells (WBC). Each WBC pellet was washed with 5 mL of FACS buffer (1% BSA+0.002% NaAzide+1 mM CaCl₂+1 mM MgCl₂ in PBS), and centrifuged at 1400 rpm for 5 min. The supernatant was decanted, and each WBC pellet was resuspended in 200 μL of FACS buffer and transferred to a 96-well round bottom plate (Fisher Scientific). The plate was centrifuged at 1400 rpm for 5 min. The supernatant was dumped out of the plate, and each WBC pellet was washed with 200 μL of FACS buffer. The plate was centrifuged at 1400 rpm for 5 min, and the supernatant dumped out of the plate. Following washing (as above), WBCs were resuspended in 200 μL of 1% paraformaldehyde (PFA) in PBS, and fixed at 4° C. overnight, protected from light. […] Each WBC pellet was resuspended in 250 μL of FACS buffer and fluorescence intensity measured on a LSRII 4-color FACS machine. […]

[6] = biological target: T2, cynomolgus monkey BDCA2 (full-length, …); experiment: flow cytometry, whole blood pDCs of cynomolgus monkey donor 2, anti-human IgG PE secondary
Experimental: as §4, §1, §2

[7] = biological target: T2, cynomolgus monkey BDCA2 (full-length, …); experiment: flow cytometry, whole blood pDCs of cynomolgus monkey donor 10, anti-human IgG PE secondary
Experimental: as §1, §2

[8] = biological target: T2, cynomolgus monkey BDCA2 (full-length, …); experiment: indirect method: flow cytometry of pDCs in cynomolgus whole blood, unlabelled BIIB059 titrated, free BDCA2 detected with the competitor BIIB059-A647 at 10 ug/mL [panel Cynomolgus monkey 1]
Experimental: as §3, §1

Kd [1]: 0.261 nM
EC50 [2]: 0.71 µg/mL
IC50 (read off the curve) [3]: ~2 µg/mL
EC50 [4]: 1.6 µg/mL
EC50 [5]: 0.944 µg/mL
EC50 [6]: 1 µg/mL
EC50 [7]: 1.2 µg/mL
IC50 (read off the curve) [8]: ~1 µg/mL
B1: BIIB059 (antibody, human IgG1, kappa)
heavy: not shown
light: DIQLTQSPSSLSASVGDRVTITCKASQSVDYDGDSYMNWYQQKPGKAPKLLIYAASTLESGVPSRFSGSGSGTDFTLTISSLQPEDFATYYCQQANEDPRTFGQGTKVEIKRTVAAPSVFIFPPSDEQLKSGTASVVCLLNNFYPREAKVQWKVDNALQSGNSQESVTEQDSKDSTYSLSSTLTLSKADYEKHKVYACEVTHQGLSSPVTKSFNRGEC
notes: Humanized IgG1 kappa, mature chains; in some assays labelled with Alexa647; also called hu24F4 H4/L1 C95A; H4-L1-C95A (YL751/YL746)

Source: patent US20180362652A1 (Biogen, published 2018)
